{"source": "patent US20260217806A1", "about": "(H LUNDBECK A S, published 2026)", "binders": {"B1": {"name": "GM37 variant 2 (antibody, human IgG1, kappa, V domains shown)", "VH": "EVQLLESGGGLVQTGGSLRLSCAASGFTFSSYAMTWVRQAPGKGLEWVSAIRSQGDRTDYADSVKGRFTISRDNSQNTLYLQMNSLRAEDTAVYYCAKNWAPFDSWGQGTLVTVSS", "VL": "not shown", "notes": "VH 31 and VL 8 are firmly tied to the antibody; It is a human IgG1 kappa; also called GM37v2; GM37var2"}}, "target": "brain derived alpha synuclein oligomers and fibrils (MSA and PD brain homogenates enriched for aggregated, … (UniProt P37840 1-140))", "test": "ELISA on MSA and PD brain homogenates enriched for aggregated, insoluble alpha synuclein (data not shown)", "data": [{"binder": "B1", "values": [{"measurement": "EC50", "result": "0.09 to 0.16", "unit": "nM"}]}]}
